In publication PMC3839617:

Target: neuropilin 1 (human) (UniProt O14786)
Experiment: radioligand binding

UniProt O14786, sequence (O14786 22-923): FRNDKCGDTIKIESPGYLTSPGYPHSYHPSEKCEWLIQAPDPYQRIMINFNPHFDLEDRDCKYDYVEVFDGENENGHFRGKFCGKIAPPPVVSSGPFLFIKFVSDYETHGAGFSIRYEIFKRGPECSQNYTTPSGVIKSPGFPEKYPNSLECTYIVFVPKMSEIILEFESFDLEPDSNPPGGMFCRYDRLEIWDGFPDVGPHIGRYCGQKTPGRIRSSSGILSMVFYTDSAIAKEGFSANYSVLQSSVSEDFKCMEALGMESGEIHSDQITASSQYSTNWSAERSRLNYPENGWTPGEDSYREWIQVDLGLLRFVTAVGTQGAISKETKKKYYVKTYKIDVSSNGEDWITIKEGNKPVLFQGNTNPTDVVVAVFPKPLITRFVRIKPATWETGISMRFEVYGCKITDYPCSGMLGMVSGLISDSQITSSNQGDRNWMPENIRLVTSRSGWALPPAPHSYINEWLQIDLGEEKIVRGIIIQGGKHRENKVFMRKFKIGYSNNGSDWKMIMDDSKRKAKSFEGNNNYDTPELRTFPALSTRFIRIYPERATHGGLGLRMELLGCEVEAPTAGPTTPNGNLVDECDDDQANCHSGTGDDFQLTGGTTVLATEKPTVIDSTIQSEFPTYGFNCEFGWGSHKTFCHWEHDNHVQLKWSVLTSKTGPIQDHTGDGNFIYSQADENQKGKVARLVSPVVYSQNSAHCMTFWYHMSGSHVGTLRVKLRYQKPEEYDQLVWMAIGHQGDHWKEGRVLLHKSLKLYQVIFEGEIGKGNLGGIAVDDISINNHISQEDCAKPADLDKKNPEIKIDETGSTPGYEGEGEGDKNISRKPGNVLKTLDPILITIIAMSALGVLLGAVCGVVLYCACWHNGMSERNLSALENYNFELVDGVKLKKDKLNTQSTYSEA

“VEGF labelled by radioactive iodine (from UniProt P15692 1-395) (ligand)” was tested, and the I125VEGF bound was 413 fmol/µg and the I125VEGF bound in the presence of SN was 504 fmol/µg.
